Paper PMC5999986

Molecular target: DosRK182R (Mycobacterium tuberculosis, UniProt P9WMF9 1-217, K182R)
Test: EMSA; 4, 8, 16 uM protein; 20 mM MgCl2; […]; ITC: 20 mM Tris pH 8.0, 200 mM NaCl, 25 C, […]
Conditions: protein: recombinant; tags: His6 (pET28a); chain copies: 2; label: none (ethidium bromide stain); blunt

B1: 20-bp DosR regulon consensus DNA (EM1/EM2) (dsDNA)
DNA 1: TTGGGGACTAAAGTCCCTAA
DNA 2: TTAGGGACTTTAGTCCCCAA
Does B1 bind?
Result: binds
